Experimental data published in patent US6780986 (UNIVERSITY OF VERMONT AND STATE AGRICULTURAL COLLEGE, dated 2004).

B1: GST-Z23 (GST fused to hands Z2 and Z3 of RIP60) (other)
chain: PRPGGDAVDRPFQCACCGKRFRHKPNLIAHRRVHTGERPHQCPECGKRFTNKPYLTSHRRIHTGEKPYPCKECGRRFRHKPNLLSHSKIHKRSEGSAQAAPGPGSPQLPAGPQESAAEPTPAVPLKPAQEPPPGAPPEHPQDPIEAPPSLYSCDDCGRSFRLERFLRAHQRHDTGERPFTCAECGKNFGKKTHLVAHSPVHSGERPFACEECGRRFSQGSHLAAHRPDHAPDRPFVCPDCGKAFRHKPYLARHRRIHTGEKPYVCPDCGKAFSQKSNLVSHRRIHTGERPYACPDCDRSFSQKSNLITHRKSHIRDGAFCCAICGQTFDDEERLLAHQKKHDV
notes: The start of the range is derived from the domain limits; nucleotide 682 would give residue 228; also called pCH61 product; not shown: glutathione-S-transferase (GST) purification tag from vector pGEX-2T
B2: GST-Z2 (GST fused to the Z2 domain of RIP60, zinc fingers 6-8 plus 37 amino acids of the proline rich region) (other)
chain: GGDAVDRPFQCACCGKRFRHKPNLIAHRRVHTGERPHQCPECGKRFTNKPYLTSHRRIHTGEKPYPCKECGRRFRHKPNLLSHSKIHKRSEGSAQAAPGPGSPQLPAGPQESAAEPTPAVPLKPAQ
notes: Expressed in E. coli BL21 and purified on glutathione beads; also called GST-Z2(P12); GST-Z2-P12; not shown: glutathione-S-transferase (GST) purification tag, 26 kD, at the amino terminus; from vector pGEX-2T

Key:
[1] = target: the molecule itself; assay: DNase I footprinting on the DHFR-E probe (self-association on DNA, inferred)
From the text: Materials and Methods: Probe DHFR-E-top was generated by digesting pUC/E with Bam HI, end-labeling by Klenow fill-in in the presence of [α-^32P]-dATP, and digesting with Bgl II. Probe DHFR-E-bottom was generated by digesting pUC/E with Bgl II, end-labeling by Klenow fill-in in the presence of [α-^32P]-dATP, and digesting with Bam HI. Footprinting probes were purified by gel electrophoresis and Geneclean (Bio 101), and resuspended in distilled water at a specific activity of 50,000 dpm/ul. Binding reactions (50 ul) that contained 50,000 dpm of labeled probe were assembled as for gel mobility shift assays. After incubation at 37° C. for 20 min and on ice for 15 min, one volume of a 5 mM CaCl_2, 10 mM MgCl2 solution was added for one minute at room temperature, followed by the addition of 0.02 units of DNase I for 1 min. Footprinting reactions were stopped with the addition of 90 ul prewarmed stop buffer (200 mM NaCl, 30 mM EDTA, 1% SDS), extracted with phenol, ethanol precipitated, and resuspended in sequencing dye buffer. Samples were resolved by electrophoresis at 65 W for 1.5 to 3.0 hours on denaturing 8% polyacrylamide gels. The gel was dried, exposed to Kodak XAR film at –80° C., and signals were detected by autoradiography.
Fusion proteins containing hand Z2 induced multiple hypersensitive sites on the top strand of DHFR-E, including the prominent site at position 3483.

[2] = target: the molecule itself; assay: gel shift multimers on DNA probe (self-association on DNA)

Row | Protein | binding result [1] | binding result [2]
1 | B1 | binds | 
2 | B2 |  | binds
